Results from the DeepSol protein solubility set.

Assay: soluble on expression in E. coli; label from the status in PepcDB or PDB records

| Sequence | soluble on expression in E. coli |
| --- | --- |
| MDQTVLDSAFNSPVDSGIAGTTTGSGSTTHFGVGTNFKVSVRSSSRSTDGTDSTDGANSDNVTGSTGSTPAHHSITNLNMALSQHSIDSATAASSTNPFPHFNQADLLNFHQNSLLPHHMFSQFGRYPQFEQKPDVGVLQQQMQMREAKPYKCTQCVKAFANSSYLSQHMRIHLGIKPFGPCNYCGKKFTQLSHLQQHIRTHTGEKPYKCKFTGCDKAFSQLSNLQSHSRCHQTDKPFKCNSCYKCFTDEQSLLDHIPKHKESKHLKIHICPFCGKSYTQQTYLQKHMTKHADRSKASNFGNDVVPADPFDPSLLSWNPMQGMGDNAHDSSSFNISSLTDQFAANTMIGSQSTNYNPAFQNSAFSQLFNIRNNRYLSEYPTSTKNGERAPGFNMITPLENIQRYNGSSSSATAVVTATGSAVVSSTPSSTSSSSAGSSSSQGGVFNPQSLINNMKNHSY | not soluble |
| MDRISGLPDEVLVKILSFVPTKVAVSTSILSKRWEFLWMWLTKLKFGSKRYSESEFKRLQCFLDRNLPLHRAPVIESFRLVLSDSHFKPEDIRMWVVVAVSRYIRELKIYSSHYGEKQNILPSSLYTCKSLVILKLDGGVLLDVPRMVCLPSLKTLELKGVRYFKQGSLQRLLCNCPVLEDLVVNLSHHDNMGKLTVIVPSLQRLSLSTPSSREFVIDTPSLLSFQLVDRNDNSHTFLIENMPKLREAYINVPFADIKSLIGSITSVKRLAISSEVGYGEGFIFNHLEELTLWNKYSSNLLVWFLKNSPNLRELMLVSETDVSFFH | soluble |
| MDRLKAMQVFVEVADRGSLSAAAMHLGMSRAMVSRYLAELEAWVGVRLLHRTTRRLSLTPAGSETLPRCRRMLEMVGDMREAVAAPDAEPRGLLRVTAAMSFGGAQLAEAVAEFVRRHPAASIDLLLVDRAVNLVEERVDLAVRITNDLDPNLIGRRLADCRSVVCAAPQYLQQHGAPARAEDLSLHNCLTHSYFGRSLWRFERAGEPVEVPVGGNITANETDVLMRAALAGAGIVMLPTYLAAGQIAAGTLRPLLPDCAPPVLGIHGVYVSRKQMPLILRTMLDFLAERFNPAPWDAALEGR | not soluble |
| MDRTIYDNYVKILRKELVPALGCTEPIALAYASAKAREVLGEFPEHMTVWCSGNIIKNVKGVKVPNSGGMKGVEAAAVLGLAGGDPSQALEVLEAVTQTDIKRTKELLRESFCDCCLKEGVANLYIEVQVVNGENEATVIIEQEHTNITRIEKNGKIVYAHKKEVSGEEIEVDKSLLNLADILVFAQEVDLNEVRDVLARQIRYNSRIAKEGLEHEWGAQVGRVIAEEFGTTVQWKAVASAAAGSDARMSGCSLPVIINSGSGNQGMTCSLPVIEYGKELKKSEEEIYRALCVSNLVALNQKRYIGSLSAYCGAVCAAAGAGAGITYLCGGNLEQIQNTVVNTIADAGGIVCDGAKPSCAAKIATSLQAAILSHKMAMRGLVFGSGEGLVMDCPEDTIKAVGYVGRAGMKQTDVEILNLMIGKTKIEDIEK | not soluble |
| MDSARALIARGWGVSLVSRCLRVSRAQLHVILRRTDDWMDGRRSRHTDDTDVLLRIHHVIGELPTYGYRRVWALLRRQAELDGMPAINAKRVYRLMRQNALLLERKPAVPPSKRAHTGRVAVKESNQRWCSDGFEFCCDNGERLRVTFALDCCDREALHWAGTTGGFNSETVQDVMLGAVERRFGNDLPSSPVEWLTDNGSCYRANETRQFARMLGLEPKNTAVRSPESNGIAESFVKTIKRDYISIMPKPDGLTAAKNLAEAFEHYNEWHPHSALGYRSPREYLRQRACNGLSDNRCLEI | not soluble |
| MDSETLPESEKYNPGPQDFLLKMPGVNAKNCRSLMHHVKNIAELAALSQDELTSILGNAANAKQLYDFIHTSFAEVVSKGKGKK | soluble |
| MDSFKVVLEGPAPWGFRLQGGKDFNVPLSISRLTPGGKAAQAGVAVGDWVLNIDGENAGSLTHIEAQNKIRACGERLSLGLSRAQPVQSKPQKVQTSDKQLLRQPVPDASKQRLMEDTEDWRPRPGTGQSRSFRILAHLTGTEFMQDPDEEFMKKSREKYVLELQSPRYTRLRDWHHQRSAHVLNVQS | soluble |
| MDSKILTMFNQGKHEEAIQAAVKAIDAAPDDPKRYAMLATMLISIKALDQAGELLAKARQLFPEDLELQYTAGLFAYAQADFAAAVSWFAKVRTDQTLKNDATYMLALSYQQAGQPTKALAFALTAHDLAPKQLDTALLAADLLMANDVFDAAARVLKPLLATEQPQVLFTYGMALSAAGKDGSHYLNKAKALDPKGYDQKANIVADINRFLRLQEGLEHHHHHH | not soluble |
| MDSMDHRIERLEYYIQLLVKTVDMDRYPFYALLIDKGLSKEEGEAVMRICDELSEELATQKAQGFVTFDKLLALFAGQLNEKLDVHETIFALYEQGLYQELMEVFIDIMKHFD | soluble |
| MDSPRVERFRAQVTDTFVPNLTWAMAPVTATINLFQDFQSYQRLAQQNRELRSELRRMQAWKEAALQLEQENARLLDLNNVRLDPRLTYITGVVLADSGSPFRQSVLINVGSRDGLVDGWATMDGIGLVGRISGVADKTARVILLTDASSRIPAIIQPSGQRVIVSGDNSAAPFIDFLEDSDLVKPGHRVISSGDGGVFPAGLLIGQVAADPTGKLRVIMAADYQRLEFLRVLRHHGTTTVSDSAQIIGPQLPVAEATQLEHHHHHH | not soluble |
| MDSSVPMIDLSSGDDEEVEVAMRRSYLLPPVPERPDGFPSLLFGNGNLSRSTLSINQEISMAPSPFSEITVSSQRPLVARSGSNSSEHNLQIKEAVKKKPVADIAHVSGTFVCVCVRGAQKNFYQKYLIATPSIPKLNTFE | soluble |
| MDSVELCLPESFSLHYEEELLCRMSNKDRHIDSSCSSFIKTEPSSPASLTDSVNHHSPGGSSDASGSYSSTMNGHQNGLDSPPLYPSAPILGGSGPVRKLYDDCSSTIVEDPQTKCEYMLNSMPKRLCLVCGDIASGYHYGVASCEACKAFFKRTIQGNIEYSCPATNECEITKRRRKSCQACRFMKCLKVGMLKEGVRLDRVRGGRQKYKRRIDAENSPYLNPQLVQPAKKPYNKIVSHLLVAEPEKIYAMPDPTVPDSDIKALTTLCDLADRELVVIIGWAKHIPGFSTLSLADQMSLLQSAWMEILILGVVYRSLSFEDELVYADDYIMDEDQSKLAGLLDLNNAILQLVKKYKSMKLEKEEFVTLKAIALANSDSMHIEDVEAVQKLQDVLHEALQDYEAGQHMEDPRRAGKMLMTLPLLRQTSTKAVQHFYNIKLEGKVPMHKLFLEMLEAKV | soluble |
| MDTGELHDLTVKGAVVTQLERCEVACQRLFQNLALLGLELQNSESITEGVCDSKAASDLGSSVELLENEERALRLCVDRFVLELRQVENLAKTLDGIREEEERILSLEQRSIEQAERCFYLWNDAREMLRGTRLTSIKEVLESAARYPRIPSWTPLPTSN | not soluble |
| MDTSSVGGLELTDQTPVLLGSTAMATSLTNVGNSFSGPANPLVSRSNKFQNSSVEDDDDVVFIEPVQPPPPSVPVVADQRTITFTSSKNEELQGNDSKITPSSKELASQKGSVSETIVIDDEEDMETNQGQEKNSSNFIERRPPETKNRTNDVDFSTSSFSRSKTKTGVGPFNPGRMNVAGDVFQNGESATHHNPDSWISQSASFPRNQKQPGVDSLSPVASLPKQIFQPSVQQQPTKPVKVTCANCKKPLQKGQTAYQRKGSAHLFCSTTCLSSFSHKPAPKKLCVMCKKDITTMKGTIVAQVDSSESFQEFCSTSCLSLYEDKQNPTKGALNKSRCTICGKLTEIRHEVSFKNMTHKLCSDHCFNRYRMANGLIMNCCEQCGEYLPSKGAGNNVLVIDGQQKRFCCQSCVSEYKQVGSHPSFLKEVRDHMQDSFLMQPEKYGKLTTCTGCRTQCRFFDMTQCIGPNGYMEPYCSTACMNSHKTKYAKSQSLGIICHFCKRNSLPQYQATMPDGKLYNFCNSSCVAKFQALSMQSSPNGQFVAPSDIQLKCNYCKNSFCSKPEILEWENKVHQFCSKTCSDDYKKLHCIVTYCEYCQEEKTLHETVNFSGVKRPFCSEGCKLLYKQDFARRLGLRCVTCNYCSQLCKKGATKELDGVVRDFCSEDCCKKFQDWYYKAARCDCCKSQGTLKERVQWRGEMKHFCDQHCLLRFYCQQNEPNMTTQKGPENLHYDQGCQTSRTKMTGSAPPPSPTPNKEMKNKAVLCKPLTMTKATYCKPHMQTKSCQTDDTWRTEYVPVPIPVPVYIPVPMHMYSQNIPVPTTVPVPVPVPVFLPAPLDSSEKIPAAIEELKSKVSSDALDTELLTMTDMMSEDEGKTETTNINSVIIETDIIGSDLLKNSDPETQSSMPDVPYEPDLDIEIDFPRAAEELDMENEFLLPPVFGEEYEEQPRPRSKKKGAKRKAVSGYQSHDDSSDNSECSFPFKYTYGVNAWKHWVKTRQLDEDLLVLDELKSSKSVKLKEDLLSHTTAELNYGLAHFVNEIRRPNGENYAPDSIYYLCLGIQEYLCGSNRKDNIFIDPGYQTFEQELNKILRSWQPSILPDGSIFSRVEEDYLWRIKQLGSHSPVALLNTLFYFNTKYFGLKTVEQHLRLSFGTVFRHWKKNPLTMENKACLRYQVSSLCGTDNEDKITTGKRKHEDDEPVFEQIENTANPSRCPVKMFECYLSKSPQNLNQRMDVFYLQPECSSSTDSPVWYTSTSLDRNTLENMLVRVLLVKDIYDKDNYELDEDTD | soluble |
| MDTVNNYRVLEHKAAGHDGTLTDGDGLLIFKPAFPQELEFYKAIQVRDVSRRKSSADGDAPLCSWMPTYLGVLNEGAKIEQSGDAALLKIDERLSDSTDNLDSIPVKSEKSKQYLVLENLLYGFSKPNILDIKLGKTLYDSKASLEKRERMKRVSETTTSGSLGFRICGMKIQKNPSVLNQLSLEYYEEEADSDYIFINKLYGRSRTDQNVSDAIELYFNNPHLSDARKHQLKKTFLKRLQLFYNTMLEEEVRMISSSLLFIYEGDPERWELLNDVDKLMRDDFIDDDDDDDDNDDDDDDDAEGSSEGPKDKKTTGSLSSMSLIDFAHSEITPGKGYDENVIEGVETLLDIFMKFLEHHHHHH | soluble |
| MDTWKVGPVELKSRLILGSGKYEDFGVMREAIAAAKAEVVTVSVRRVELKAPGHVGLLEALEGVRLLPNTAGARTAEEAVRLARLGRLLTGERWVKLEVIPDPTYLLPDPLETLKAAERLIEEDFLVLPYMGPDLVLAKRLAALGTATVMPLAAPIGSGWGVRTRALLELFAREKASLPPVVVDAGLGLPSHAAEVMELGLDAVLVNTAIAEAQDPPAMAEAFRLAVEAGRKAYLAGPMRPREAASPSSPVEGVPFTPTGPRPGRGPQ | soluble |
| MDVADISKKQSILKQFEREGVKNVLFTDCLRQHDENVKKHPVIRCLMFQIVPLVSKLIESTSRFHREEERCYCLMVIGVPNVGKSSLINALRRTYLKKGKASKVGAEPGITKAVLTKIQVCERPIIHLLDTPGVLPPRIENIETGMKLALCGTVLDHLVGEDVIADFLLFSLNRLERFSYVEKYSLEEPCDDIQHVLKCIAVKLGKTRRVKAITGVGNITVQLPDYSAAAYDFIRAFRKGELGKVMLD | not soluble |
| MDVDRLMRDLSVEQLENIQQNLEKEMEGKRESLREMVGRRYRDVLEASSEVRHVCSLADKLASDIANTRVGYQSTHVRTGGREEQKAGEHLYAVNYLVSSIGGDSGEPLDDVVALCMVEHLQKQLISNHSSPMIHKNARALTNRIVATRSELEFQNCSTLLDISRSDWATNQLAAIALLQGKDISQLLELYLEKRFEHVTHLIEDSATILNIVDEMKKTLAVVEELFVHGELIHAIHSVCNGQYKCELIREMCADQAYSFEKTINEDMDRVWRHLREKLSGRGAGTLPSQLVGEKCAAWIEKTCAVTHKLVAEVCEYFDNLDQIIDLLQAITASLKQDWPRIGSNRSVYDKLLQTAVVDKAKILLIQMIESIELFAKKRFESTSDGPQTAIFDERTYHPDSQSHIGISTQLYNCVKTLWESLEQTNEKCAQFETICTPMADMATSNALKETMATNVLQLLLRLCELHSDKQEGSARFLARARLALALVHSESTLICKLLDKDSQRITSLNQRLHSIIEKNLG | not soluble |
